According to the supplement of paper PMC10567573:

B1: TRAF3IP2 (parent)
chain: YGHDYPRAAYQQVIQPALPGQPLP

Variants of: B1
Experiment: protein stability index of a GFP-peptide fusion (GPS, HEK-293T) (PSI 1-6); higher = more stable
Conditions: c terminus: a fixed tail appended
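Further: lentivirally expressed fusions sorted by FACS into six bins by GFP to DsRed ratio, PSI derived from sequencing read proportions per bin multiplied by bin number.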

Question: With YGHDYPRAAYQQVIQPALEGQPLP [P19E] as the variant, how does the protein stability index read?
Answer: 2.42

Question: Which protein stability index does the source give for YGHDYPRAAYQQVIQPALFGQPLP [P19F] here?
Answer: 2.44

Question: Which protein stability index does the source give for YGHDYPRAAYQQVIQPALGGQPLP [P19G] here?
Answer: 1.9

Question: Which protein stability index does the source give for YGHDYPRAAYQQVIQPALHGQPLP [P19H] here?
Answer: 1.65

Question: Which protein stability index does the source give for YGHDYPRAAYQQVIQPALIGQPLP [P19I] here?
Answer: 2.54

Question: Which protein stability index does the source give for YGHDYPRAAYQQVIQPALKGQPLP [P19K] here?
Answer: 2.14

Question: Which protein stability index does the source give for YGHDYPRAAYQQVIQPALLGQPLP [P19L] here?
Answer: 2.5

Question: Which protein stability index does the source give for YGHDYPRAAYQQVIQPALMGQPLP [P19M] here?
Answer: 2.34

Question: For YGHDYPRAAYQQVIQPALNGQPLP [P19N], which protein stability index is on record?
Answer: 2.07

Question: For YGHDYPRAAYQQVIQPALQGQPLP [P19Q], which protein stability index is on record?
Answer: 1.54

Question: Which protein stability index does the source give for YGHDYPRAAYQQVIQPALRGQPLP [P19R] here?
Answer: 1.76

Question: With YGHDYPRAAYQQVIQPALSGQPLP [P19S] as the variant, how does the protein stability index read?
Answer: 2.45

Question: Which protein stability index does the source give for YGHDYPRAAYQQVIQPALTGQPLP [P19T] here?
Answer: 2.65

Question: With YGHDYPRAAYQQVIQPALVGQPLP [P19V] as the variant, how does the protein stability index read?
Answer: 2.35

Question: With YGHDYPRAAYQQVIQPALWGQPLP [P19W] as the variant, how does the protein stability index read?
Answer: 1.73

Question: Which protein stability index does the source give for YGHDYPRAAYQQVIQPALYGQPLP [P19Y] here?
Answer: 1.87

Question: For YGHDYPRAAYQQVIQPALPCQPLP [G20C], which protein stability index is on record?
Answer: 2.04

Question: For YGHDYPRAAYQQVIQPALPDQPLP [G20D], which protein stability index is on record?
Answer: 2.78

Question: With YGHDYPRAAYQQVIQPALPEQPLP [G20E] as the variant, how does the protein stability index read?
Answer: 2.52

Question: Which protein stability index does the source give for YGHDYPRAAYQQVIQPALPFQPLP [G20F] here?
Answer: 1.8

Question: With YGHDYPRAAYQQVIQPALPHQPLP [G20H] as the variant, how does the protein stability index read?
Answer: 2.33

Question: With YGHDYPRAAYQQVIQPALPIQPLP [G20I] as the variant, how does the protein stability index read?
Answer: 1.58

Question: For YGHDYPRAAYQQVIQPALPKQPLP [G20K], which protein stability index is on record?
Answer: 2.23

Question: Which protein stability index does the source give for YGHDYPRAAYQQVIQPALPLQPLP [G20L] here?
Answer: 1.38

Question: With YGHDYPRAAYQQVIQPALPMQPLP [G20M] as the variant, how does the protein stability index read?
Answer: 2.27

Question: For YGHDYPRAAYQQVIQPALPNQPLP [G20N], which protein stability index is on record?
Answer: 2.68

Question: With YGHDYPRAAYQQVIQPALPQQPLP [G20Q] as the variant, how does the protein stability index read?
Answer: 2.04

Question: With YGHDYPRAAYQQVIQPALPRQPLP [G20R] as the variant, how does the protein stability index read?
Answer: 1.52

Question: For YGHDYPRAAYQQVIQPALPSQPLP [G20S], which protein stability index is on record?
Answer: 1.6

Question: With YGHDYPRAAYQQVIQPALPVQPLP [G20V] as the variant, how does the protein stability index read?
Answer: 1.69

Question: For YGHDYPRAAYQQVIQPALPWQPLP [G20W], which protein stability index is on record?
Answer: 1.49

Question: For YGHDYPRAAYQQVIQPALPYQPLP [G20Y], which protein stability index is on record?
Answer: 2.66

Question: With YGHDYPRAAYQQVIQPALPGAPLP [Q21A] as the variant, how does the protein stability index read?
Answer: 2.12

Question: Which protein stability index does the source give for YGHDYPRAAYQQVIQPALPGCPLP [Q21C] here?
Answer: 2.74

Question: For YGHDYPRAAYQQVIQPALPGDPLP [Q21D], which protein stability index is on record?
Answer: 2.58

Question: For YGHDYPRAAYQQVIQPALPGEPLP [Q21E], which protein stability index is on record?
Answer: 2.2

Question: Which protein stability index does the source give for YGHDYPRAAYQQVIQPALPGFPLP [Q21F] here?
Answer: 1.65

Question: For YGHDYPRAAYQQVIQPALPGGPLP [Q21G], which protein stability index is on record?
Answer: 1.58

Question: Which protein stability index does the source give for YGHDYPRAAYQQVIQPALPGHPLP [Q21H] here?
Answer: 1.37

Question: Which protein stability index does the source give for YGHDYPRAAYQQVIQPALPGIPLP [Q21I] here?
Answer: 2.79

Question: For YGHDYPRAAYQQVIQPALPGKPLP [Q21K], which protein stability index is on record?
Answer: 2.21

Question: For YGHDYPRAAYQQVIQPALPGLPLP [Q21L], which protein stability index is on record?
Answer: 2.02

Question: Which protein stability index does the source give for YGHDYPRAAYQQVIQPALPGMPLP [Q21M] here?
Answer: 2.67

Question: For YGHDYPRAAYQQVIQPALPGNPLP [Q21N], which protein stability index is on record?
Answer: 2.08

Question: Which protein stability index does the source give for YGHDYPRAAYQQVIQPALPGPPLP [Q21P] here?
Answer: 2.95

Question: Which protein stability index does the source give for YGHDYPRAAYQQVIQPALPGRPLP [Q21R] here?
Answer: 2.24

Question: Which protein stability index does the source give for YGHDYPRAAYQQVIQPALPGSPLP [Q21S] here?
Answer: 1.99

Question: With YGHDYPRAAYQQVIQPALPGTPLP [Q21T] as the variant, how does the protein stability index read?
Answer: 2.1

Question: Which protein stability index does the source give for YGHDYPRAAYQQVIQPALPGVPLP [Q21V] here?
Answer: 2.44

Question: For YGHDYPRAAYQQVIQPALPGWPLP [Q21W], which protein stability index is on record?
Answer: 1.84

Question: With YGHDYPRAAYQQVIQPALPGYPLP [Q21Y] as the variant, how does the protein stability index read?
Answer: 1.88

Question: Which protein stability index does the source give for YGHDYPRAAYQQVIQPALPGQALP [P22A] here?
Answer: 1.93

Question: For YGHDYPRAAYQQVIQPALPGQCLP [P22C], which protein stability index is on record?
Answer: 1.62

Question: Which protein stability index does the source give for YGHDYPRAAYQQVIQPALPGQDLP [P22D] here?
Answer: 1.34

Question: With YGHDYPRAAYQQVIQPALPGQELP [P22E] as the variant, how does the protein stability index read?
Answer: 1.71

Question: With YGHDYPRAAYQQVIQPALPGQFLP [P22F] as the variant, how does the protein stability index read?
Answer: 2.56

Question: Which protein stability index does the source give for YGHDYPRAAYQQVIQPALPGQGLP [P22G] here?
Answer: 3.86

Question: Which protein stability index does the source give for YGHDYPRAAYQQVIQPALPGQHLP [P22H] here?
Answer: 1.71

Question: Which protein stability index does the source give for YGHDYPRAAYQQVIQPALPGQILP [P22I] here?
Answer: 1.82

Question: Which protein stability index does the source give for YGHDYPRAAYQQVIQPALPGQKLP [P22K] here?
Answer: 2.17

Question: Which protein stability index does the source give for YGHDYPRAAYQQVIQPALPGQLLP [P22L] here?
Answer: 1.39

Question: For YGHDYPRAAYQQVIQPALPGQMLP [P22M], which protein stability index is on record?
Answer: 1.82

Question: With YGHDYPRAAYQQVIQPALPGQNLP [P22N] as the variant, how does the protein stability index read?
Answer: 2.11

Question: Which protein stability index does the source give for YGHDYPRAAYQQVIQPALPGQQLP [P22Q] here?
Answer: 2.24

Question: For YGHDYPRAAYQQVIQPALPGQRLP [P22R], which protein stability index is on record?
Answer: 1.79

Question: Which protein stability index does the source give for YGHDYPRAAYQQVIQPALPGQSLP [P22S] here?
Answer: 1.8

Question: For YGHDYPRAAYQQVIQPALPGQTLP [P22T], which protein stability index is on record?
Answer: 2.33

Question: For YGHDYPRAAYQQVIQPALPGQVLP [P22V], which protein stability index is on record?
Answer: 1.8

Question: Which protein stability index does the source give for YGHDYPRAAYQQVIQPALPGQWLP [P22W] here?
Answer: 1.26

Question: With YGHDYPRAAYQQVIQPALPGQYLP [P22Y] as the variant, how does the protein stability index read?
Answer: 1.75

Question: Which protein stability index does the source give for YGHDYPRAAYQQVIQPALPGQPAP [L23A] here?
Answer: 2.62

Question: For YGHDYPRAAYQQVIQPALPGQPCP [L23C], which protein stability index is on record?
Answer: 2.21

Question: Which protein stability index does the source give for YGHDYPRAAYQQVIQPALPGQPDP [L23D] here?
Answer: 2.18

Question: For YGHDYPRAAYQQVIQPALPGQPEP [L23E], which protein stability index is on record?
Answer: 1.8

Question: For YGHDYPRAAYQQVIQPALPGQPFP [L23F], which protein stability index is on record?
Answer: 2.15

Question: For YGHDYPRAAYQQVIQPALPGQPGP [L23G], which protein stability index is on record?
Answer: 1.77

Question: With YGHDYPRAAYQQVIQPALPGQPHP [L23H] as the variant, how does the protein stability index read?
Answer: 1.59

Question: Which protein stability index does the source give for YGHDYPRAAYQQVIQPALPGQPIP [L23I] here?
Answer: 2.24

Question: With YGHDYPRAAYQQVIQPALPGQPKP [L23K] as the variant, how does the protein stability index read?
Answer: 2.2

Question: With YGHDYPRAAYQQVIQPALPGQPMP [L23M] as the variant, how does the protein stability index read?
Answer: 2.59

Question: For YGHDYPRAAYQQVIQPALPGQPNP [L23N], which protein stability index is on record?
Answer: 2.09

Question: With YGHDYPRAAYQQVIQPALPGQPPP [L23P] as the variant, how does the protein stability index read?
Answer: 1.54

Question: For YGHDYPRAAYQQVIQPALPGQPQP [L23Q], which protein stability index is on record?
Answer: 2.24

Question: For YGHDYPRAAYQQVIQPALPGQPRP [L23R], which protein stability index is on record?
Answer: 2.28

Question: Which protein stability index does the source give for YGHDYPRAAYQQVIQPALPGQPSP [L23S] here?
Answer: 2.02

Question: Which protein stability index does the source give for YGHDYPRAAYQQVIQPALPGQPTP [L23T] here?
Answer: 1.99

Question: With YGHDYPRAAYQQVIQPALPGQPVP [L23V] as the variant, how does the protein stability index read?
Answer: 2.5

Question: With YGHDYPRAAYQQVIQPALPGQPWP [L23W] as the variant, how does the protein stability index read?
Answer: 1.72

Question: Which protein stability index does the source give for YGHDYPRAAYQQVIQPALPGQPYP [L23Y] here?
Answer: 1.7

Question: For YGHDYPRAAYQQVIQPALPGQPLA [P24A], which protein stability index is on record?
Answer: 2.67

Question: With YGHDYPRAAYQQVIQPALPGQPLC [P24C] as the variant, how does the protein stability index read?
Answer: 2

Question: For YGHDYPRAAYQQVIQPALPGQPLD [P24D], which protein stability index is on record?
Answer: 2.45

Question: With YGHDYPRAAYQQVIQPALPGQPLE [P24E] as the variant, how does the protein stability index read?
Answer: 1.42

Question: With YGHDYPRAAYQQVIQPALPGQPLF [P24F] as the variant, how does the protein stability index read?
Answer: 1.9
